Results as given in the supplement of paper PMC10126150.
± gives the standard deviation of the averaged measurements.

System: ATP
Test: switch fluorescence ratio, 500 uM ATP over buffer (Cy3 cluster intensity, sum of 5 cycles each) (fold (ratio)); higher = stronger signal-on switching upon ATP binding; sequences stand for … in TCGTCGGCAGCGTCAGATGTGTATAAGAGACAGTTTTTTTTTTTTTTTTTTTTTTTTT…TC
Settings: aptamer strand: ATP DNA aptamer (quencher-CACCTGGGGGAGTATTGCGGAGGAAGG + anchor), 100 nM annealed; ATP concentration: 500 uM
Outline: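 The quencher-labelled ATP aptamer, at 100 nM, was annealed to Cy3-labelled switching-strand clusters on a modified Illumina MiSeq flow-cell. The clusters were imaged in selection buffer, then after 15 min with 500 uM ATP at 22 °C, and this buffer/ATP cycle ran five times with NaOH stripping and re-annealing between runs. Per-cluster fluorescence ratios, summed target-cycle over summed buffer-cycle Cy3 intensity, were averaged per switch-domain sequence. Clusters outside 100-1000 RFU were excluded.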
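Also: ATP exposure 15 min at 22 °C before imaging.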

Sequence | switch fluorescence ratio
TCATGGGTAA | 1.01 ± 0.029
TCATGGGTGG | 0.99 ± 0.02
TCATGGGTTG | 0.981 ± 0.0053
TCATGGTGAT | 1.022 ± 0.0013
TCATGGTTTA | 1.01 ± 0.016
TCATGTAAGA | 0.998 ± 0.024
TCATGTATGG | 0.977 ± 0.012
TCATGTTAGG | 0.994 ± 0.0075
TCATGTTCGG | 1.02 ± 0.034
TCATTAATAT | 1.16 ± 0.22
TCATTAGAGG | 0.9942 ± 0.0067
TCATTCCACT | 1.031 ± 0.0059
TCATTGGGAA | 1.01 ± 0.021
TCATTGGTTT | 0.998 ± 0.032
TCATTTACAT | 1.04 ± 0.037
TCATTTCGCC | 1.071 ± 0.0047
TCATTTCGGG | 0.991 ± 0.038
TCATTTGATA | 1.03 ± 0.035
TCCAAGGGGG | 1.024 ± 0.0066
TCCAAGGGTA | 0.997 ± 0.025
TCCAAGTCGA | 1.041 ± 0.0033
TCCAATCATG | 0.9765 ± 0.0095
TCCACCGGCT | 1.03 ± 0.052
TCCACCGTCG | 1.27 ± 0.065
TCCACCGTTC | 1.66 ± 0.77

Sequence | switch fluorescence ratio
TCCACGGGG | 1.12 ± 0.057
TCCAGAACCC | 1 ± 0.011
TCCAGGAATT | 1 ± 0.016
TCCAGGGCG | 1.03 ± 0.029
TCCAGGGTCA | 1.01 ± 0.025
TCCAGGTCGG | 1.2 ± 0.025
TCCATAGTCG | 1.03 ± 0.014
TCCATGTTGA | 1.03 ± 0.019
TCCATTAAAA | 0.976 ± 0.036
TCCATTAGTT | 1.04 ± 0.069
TCCATTCCGA | 1.17 ± 0.13
TCCATTTTCG | 0.984 ± 0.025
TCCCAAACAT | 1.06 ± 0.009
TCCCAAATTT | 0.983 ± 0.032
TCCCATAAGC | 1.099 ± 0.0051
TCCCATGGCG | 1.04 ± 0.062
TCCCCATGGC | 1.35 ± 0.1
TCCCGGGTAT | 0.9787 ± 0.0073
TCCCGGTTTG | 1.009 ± 0.01
TCCCGTAAGT | 1.05 ± 0.069
TCCCTTTTGG | 1.011 ± 0.0029
TCCGAGGGAG | 1.05 ± 0.079
TCCGAGTATG | 1.08 ± 0.027
TCCGATTGGG | 0.9801 ± 0.0071
TCCGCCATGG | 2.71 ± 0.28

Sequence | switch fluorescence ratio
TCCGCGACGG | 1.4 ± 0.2
TCCGCGGTTT | 1.23 ± 0.18
TCCGGACCGG | 0.995 ± 0.019
TCCGGACCTC | 1.5 ± 0.34
TCCGGCGGGA | 1.26 ± 0.32
TCCGGCTGAG | 1.02 ± 0.012
TCCGGGTATC | 1.33 ± 0.04
TCCGGGTGGG | 1.09 ± 0.079
TCCGGGTTTT | 0.963 ± 0.019
TCCGGTGTG | 0.97 ± 0.015
TCCGGTTTTA | 0.981 ± 0.02
TCCGGTTTTG | 0.979 ± 0.013
TCCGTCAGCA | 4.04 ± 0.52
TCCGTGAGTG | 1.07 ± 0.031
TCCGTTTGTT | 0.991 ± 0.04
TCCGTTTTGG | 1.03 ± 0.066
TCCGTTTTTT | 1.04 ± 0.063
TCCTAATGGG | 0.985 ± 0.025
TCCTACTGTA | 1.1974 ± 0.00047
TCCTACTGTT | 0.9957 ± 0.0061
TCCTAGAAC | 0.997 ± 0.026
TCCTAGGGGG | 1 ± 0.026
TCCTCATGGT | 1 ± 0.022
TCCTCCGTGG | 2.56 ± 0.59
TCCTGACGTA | 1.11 ± 0.022

Sequence | switch fluorescence ratio
TCCTGATGGC | 0.985 ± 0.016
TCCTGCGCGT | 4.52 ± 0.71
TCCTGGGCTA | 1.57 ± 0.019
TCCTGGGGGA | 1.15 ± 0.22
TCCTGTGCTG | 1.09 ± 0.043
TCCTGTTTTT | 1.01 ± 0.056
TCCTTAAAAA | 1.1 ± 0.06
TCCTTAATTT | 1.02 ± 0.055
TCCTTCAACT | 1.08 ± 0.045
TCCTTGACTT | 1.15 ± 0.26
TCCTTGGAGG | 0.989 ± 0.028
TCCTTTAATG | 0.9917 ± 0.0073
TCCTTTAGGT | 0.993 ± 0.053
TCCTTTGTGG | 1.02 ± 0.021
TCGAAGAATG | 1.005 ± 0.002
TCGAAGGGTT | 0.993 ± 0.028
TCGAAGTAGG | 1.46 ± 0.71
TCGAAGTGTT | 0.989 ± 0.027
TCGACATTAT | 1.034 ± 0.0055
TCGACGTCTC | 1.29 ± 0.16
TCGACGTTGT | 1.1 ± 0.036
TCGACGTTTG | 1.01 ± 0.011
TCGACTCACT | 1.2 ± 0.013
TCGAGAGATA | 1 ± 0.054
TCGAGGACTA | 0.999 ± 0.032

Sequence | switch fluorescence ratio
TCGAGGCGGA | 0.985 ± 0.049
TCGAGGGCAG | 1.01 ± 0.029
TCGAGGGGGA | 1.31 ± 0.63
TCGAGTAAGG | 1.18 ± 0.28
TCGAGTCATT | 0.9913 ± 0.005
TCGAGTCCTA | 0.9857 ± 0.0037
TCGAGTGTGC | 1.06 ± 0.021
TCGAGTTCTT | 0.999 ± 0.012
TCGATCCAAC | 1.064 ± 0.0065
TCGATGAGGG | 1.02 ± 0.026
TCGATGGCAT | 1.31 ± 0.065
TCGATGGCTT | 1.05 ± 0.019
TCGATGGGTG | 1.01 ± 0.032
TCGATGTCGT | 0.9927 ± 0.0059
TCGATTAATT | 1.1 ± 0.079
TCGATTTGAT | 0.98541 ± 0.00062
TCGCAAAATA | 2.47 ± 1.2
TCGCAATGTT | 3.58 ± 1
TCGCAGGGTG | 1.43 ± 0.47
TCGCCATCCT | 1.09 ± 0.019
TCGCCTTTGG | 1.07 ± 0.072
TCGCGAAATT | 0.9763 ± 0.0042
TCGCGAAGGG | 1.01 ± 0.013
TCGCGATCAG | 1.12 ± 0.042
TCGCGCCGGT | 1.005 ± 0.0062

Sequence | switch fluorescence ratio
TCGCGGAATT | 1.01 ± 0.066
TCGCGGCAGT | 1.04 ± 0.015
TCGCGGGAGA | 1.05 ± 0.023
TCGCGGGGGA | 1.01 ± 0.037
TCGCGGGGTG | 1.02 ± 0.056
TCGCGGGTGG | 1.03 ± 0.021
TCGCTACTCG | 3.07 ± 0.62
TCGCTCGCAT | 3.68 ± 0.73
TCGCTTACTG | 1.3 ± 0.053
TCGCTTTGCT | 1.31 ± 0.42
TCGCTTTTTT | 1.03 ± 0.068
TCGGAATCTG | 1 ± 0.1
TCGGACCCTA | 1.03 ± 0.041
TCGGACGTCG | 1.07 ± 0.019
TCGGACGTGC | 1.35 ± 0.1
TCGGAGTAAC | 1.667 ± 0.0081
TCGGAGTTTA | 1.04 ± 0.016
TCGGATAGGT | 1.02 ± 0.025
TCGGATGTCA | 0.965 ± 0.049
TCGGATTAGT | 1 ± 0.025
TCGGATTGTG | 1.01 ± 0.021
TCGGCAATGT | 2.32 ± 1.6
TCGGCAGGGG | 1.09 ± 0.035
TCGGCCATGG | 0.985 ± 0.031
TCGGCGGACA | 1 ± 0.023

Sequence | switch fluorescence ratio
TCGGCGGTTT | 0.977 ± 0.058
TCGGCTATGA | 1.03 ± 0.021
TCGGGAACGA | 0.999 ± 0.028
TCGGGACATC | 1.03 ± 0.032
TCGGGAGCCT | 0.973 ± 0.015
TCGGGAGGGG | 0.989 ± 0.033
TCGGGAGTAC | 1.01 ± 0.015
TCGGGATCTG | 0.997 ± 0.018
TCGGGATGGC | 1.03 ± 0.024
TCGGGATTTA | 1.02 ± 0.033
TCGGGCAGGT | 1.06 ± 0.064
TCGGGGATCG | 1.006 ± 0.0025
TCGGGGCCAA | 0.991 ± 0.019
TCGGGGGAAT | 1.11 ± 0.14
TCGGGGGCTG | 0.9799 ± 0.0077
TCGGGGGGCA | 0.992 ± 0.028
TCGGGGGTCC | 1 ± 0.066
TCGGGGTAGC | 0.974 ± 0.025
TCGGGGTCGG | 1.03 ± 0.016
TCGGGGTCGT | 0.9859 ± 0.0065
TCGGGGTTA | 0.979 ± 0.029
TCGGGGTTCA | 1.04 ± 0.03
TCGGGGTTGT | 1.01 ± 0.087
TCGGGTAAGC | 1.014 ± 0.0052
TCGGGTACGT | 0.967 ± 0.032

Sequence | switch fluorescence ratio
TCGGGTAGGG | 0.991 ± 0.025
TCGGGTCTGC | 1.01 ± 0.015
TCGGGTTGTA | 1 ± 0.025
TCGGGTTTAG | 1.04 ± 0.04
TCGGGTTTGG | 1.01 ± 0.041
TCGGTACGG | 1.07 ± 0.017
TCGGTAGGGG | 0.999 ± 0.025
TCGGTATATG | 0.991 ± 0.011
TCGGTATGAG | 0.9698 ± 0.0027
TCGGTCCAGG | 1.39 ± 0.14
TCGGTGCGAC | 1.04 ± 0.032
TCGGTGTGAG | 1.01 ± 0.03
TCGGTGTGCG | 1.03 ± 0.033
TCGGTGTGCT | 1.06 ± 0.064
TCGGTTAGT | 0.96 ± 0.054
TCGGTTCGTG | 1.01 ± 0.054
TCGGTTTATA | 0.997 ± 0.01
TCGGTTTGGA | 1.019 ± 0.0063
TCGGTTTGGT | 1.01 ± 0.024
TCGTAAGAAA | 1.01 ± 0.043
TCGTACAGTT | 1.03 ± 0.02
TCGTACGTTT | 1.04 ± 0.021
TCGTAGCTAA | 4.37 ± 0.23
TCGTAGGCCT | 0.981 ± 0.061
TCGTAGGGTC | 0.982 ± 0.047
